For experiment [1], the target named is T1, mouse IL-18 receptor alpha (mouse, UniProt Q61098 20-326, limits assumed).
T1 construct: also called Mouse IL18Ra; mouse IL-18R alpha
T1 sequence (looked up): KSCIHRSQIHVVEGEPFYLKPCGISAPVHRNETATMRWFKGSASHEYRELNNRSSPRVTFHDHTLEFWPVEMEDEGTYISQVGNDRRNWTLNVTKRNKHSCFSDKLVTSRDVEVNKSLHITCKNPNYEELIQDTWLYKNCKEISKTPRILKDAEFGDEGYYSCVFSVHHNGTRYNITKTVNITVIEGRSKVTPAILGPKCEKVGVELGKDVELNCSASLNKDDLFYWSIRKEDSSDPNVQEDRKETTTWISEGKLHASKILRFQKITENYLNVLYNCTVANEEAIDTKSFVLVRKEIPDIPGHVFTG
Briefly: Octet BLI, monoFc scaffold. As to the method:
(§1) Octet 96red instrument was used to determine affinities of IL18 proteins to BP or receptors. 5-10 ug/ml analyte proteins were used for loading on Sartorius tips (AHC or SA). […] 120-180 s loading, 200 s association and 800 s dissociation were used for kinetics. 3-7 data points were used to calculate affinities.
(§2) Several mouse variants were next tested for binding affinity to mouse IL-18R alpha and mouse IL-18BP.
Background: In BLI a coated tip is dipped into the sample, and binding shifts an interference pattern.

Experiment [2] addresses T2, mouse IL-18 binding protein (mouse, UniProt Q9Z0M9 29-193).
T2 construct: also called Mouse IL18BP; Mouse IL-18BP
T2 sequence (looked up): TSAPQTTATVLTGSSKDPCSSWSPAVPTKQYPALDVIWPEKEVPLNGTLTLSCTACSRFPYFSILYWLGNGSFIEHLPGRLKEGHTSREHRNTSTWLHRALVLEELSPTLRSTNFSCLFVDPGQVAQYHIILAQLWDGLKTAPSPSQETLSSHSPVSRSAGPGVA
The experiment can be described thus: Octet BLI, monoFc scaffold. As to the method: as §1, §2

The target in experiment [3] is T3, mouse IL-18 receptors on PathHunter U2OS mIL18-NF-kb reporter cells (mouse, UniProt Q61098 20-537; Q9Z2B1 20-614).
T3 sequence (looked up) 1: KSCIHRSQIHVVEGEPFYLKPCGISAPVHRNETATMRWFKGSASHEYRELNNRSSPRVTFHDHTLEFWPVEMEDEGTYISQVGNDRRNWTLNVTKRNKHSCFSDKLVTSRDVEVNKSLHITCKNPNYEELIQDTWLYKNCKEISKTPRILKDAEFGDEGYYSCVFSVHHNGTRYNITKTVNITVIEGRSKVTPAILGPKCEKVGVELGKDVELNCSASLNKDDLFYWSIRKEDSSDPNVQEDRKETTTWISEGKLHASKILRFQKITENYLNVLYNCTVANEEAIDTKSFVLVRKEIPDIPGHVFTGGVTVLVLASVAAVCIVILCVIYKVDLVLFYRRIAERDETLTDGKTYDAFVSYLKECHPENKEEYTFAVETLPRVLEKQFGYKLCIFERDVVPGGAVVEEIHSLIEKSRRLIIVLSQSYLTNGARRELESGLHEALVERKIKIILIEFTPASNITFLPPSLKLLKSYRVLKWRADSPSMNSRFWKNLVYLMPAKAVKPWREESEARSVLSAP
T3 sequence (looked up) 2: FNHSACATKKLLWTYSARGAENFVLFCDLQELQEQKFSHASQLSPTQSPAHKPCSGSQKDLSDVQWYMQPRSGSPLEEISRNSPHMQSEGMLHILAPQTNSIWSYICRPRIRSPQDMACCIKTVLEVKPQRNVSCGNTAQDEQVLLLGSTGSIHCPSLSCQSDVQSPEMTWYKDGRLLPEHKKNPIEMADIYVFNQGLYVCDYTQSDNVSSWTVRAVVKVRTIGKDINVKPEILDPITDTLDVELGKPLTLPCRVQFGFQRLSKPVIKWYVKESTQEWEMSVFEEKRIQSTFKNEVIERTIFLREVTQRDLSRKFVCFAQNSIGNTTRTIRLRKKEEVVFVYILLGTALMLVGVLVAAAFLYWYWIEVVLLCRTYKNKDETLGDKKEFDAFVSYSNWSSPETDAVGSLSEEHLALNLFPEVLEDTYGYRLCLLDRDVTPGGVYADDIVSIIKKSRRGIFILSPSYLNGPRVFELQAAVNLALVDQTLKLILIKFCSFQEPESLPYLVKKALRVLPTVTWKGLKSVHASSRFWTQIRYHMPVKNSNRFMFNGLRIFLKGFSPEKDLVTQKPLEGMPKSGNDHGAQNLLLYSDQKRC
Briefly: cell-based or functional assay.

Experiment [4] has as its target T2, mouse IL-18 binding protein. Briefly: cell-based or functional assay.

B1: mouse IL-18 G3V, H6K, K52A on monoFc scaffold (Fc fusion, not shown: small tags and cut ends)
chain: NFVRLKSTTAVIRNINDQVLFVDKRQPVFEDMTDIDQSASEPQTRLIIYMYADSEVRGLAVTLSVKDSKMSTLSSKNKIISFEEMDPPENIDDIQSDLIFFQKRVPGHNKMEFESSLYEGHFLACQKEDDAFKLILKKKDENGDKSVMFTLTNLHQSNGGPSVFLFPPKPKDTLMISRTPEVTCVVVDVSHEDPEVKFNWYVDGVEVHNAKTKPREEQYNSTYRVVSVLTVLHQDWLNGKEYKCKVSNKALPAPIEKTISKAKGQPREPQVYTLPPSREEMTKNQVNLTCLVKGFYPSDIAVEWESNGQPENNYKTTPPVLDSDGSFFLNSTLTVDKSRWQQGNVFSCSVMHEALHNHYTQKSLSLS
For orientation: Kd means the equilibrium constant for the complex coming apart. Lower therefore signals higher affinity. Regarding B1, the Kd in experiment [1] is 4.85 nM; in experiment [2] it was 14 nM. In addition, the “mouse IL-18 reporter assay EC50, without mouse IL-18BP” value in experiment [3] turned out to be 0.0009 nM. Further, the “mouse IL-18 reporter assay EC50, +Mouse IL-18BP 50 nM” value in experiment [4] worked out at 0.00486 nM.

For the origin of these results see patent US20240182536A1 (MURAL ONCOLOGY, published 2024).
